Assays:
[1] = tested on: human mutant recombinant prethrombin-2
[2] = tested on: mouse mutant recombinant prethrombin-2

Substance	protease activity (fluorescence of the cleaved fluorogenic substrate (p-tosyl-Gly-Pro-Arg)2-rhodamine 110 over time) [1]	protease activity (fluorescence of the cleaved fluorogenic substrate (p-tosyl-Gly-Pro-Arg)2-rhodamine 110 over time) [2]	cleavage of the proenzyme [2]
wild type human α-thrombin (Sigma Aldrich)	in the presence of WT human α-thrombin, the protease activity increased considerably with time (FIG. 4, curves a, b), compared to the samples where only WT α-thrombin was added	in the presence of WT human α-thrombin, the protease activity increased considerably with time (FIG. 4, curves a, b), compared to the samples where only WT α-thrombin was added	–
α-thrombin immobilized on agarose (Thrombin CleanCleave Kit, Sigma-Aldrich)	–	–	Mouse mutant prethrombin-2 was cleaved using Thrombin CleanCleave™ Kit

Source: patent US20140322736
